Results: paper doi:10.1101/2022.08.02.502465
Where two headings read alike, the source gives them in different places.

How the values were obtained:
DNA polymerase I (Pol I) [1] = biological target: T1, DNA polymerase I (Pol I) (Escherichia coli, UniProt P00582 1-928); assay: BLI
[2] = biological target: Pol I endo-mut (endonuclease-dead full-length Pol I) (Escherichia coli, UniProt P00582 1-928, D115A;D140A); assay: cryo-EM structure
[3] = biological target: Pol I Klenow fragment (Pol IKL) (Escherichia coli, UniProt P00582 328-928); assay: cryo-EM structure
DNA polymerase I (Pol I) [4] = biological target: T1, DNA polymerase I (Pol I); assay: BLI; remark: listed apart in the source

B1: primed BLI substrate (mixed)
DNA 1: CGCTCACTGGCCGTCGTTTTACAACGTCGTGACTGGGAAAACCCTGGCGTTACC
DNA 2: ACGACGTTGTAAAACGACGGCCAGTGAGCG
- Kd (DNA polymerase I (Pol I) [1]): 42 ± 5 nM

B2: flapped Okazaki fragment DNA (cryo-EM) (mixed)
DNA 1: CGCTCACTGGCCGTCGTTTTACAACGTCGTGACTGGGAAAACCCTGGCGTTACC
DNA 2: GGTAACGCCAGGGTTTTCCCAGTC
DNA 3: TTTTTTACGACGTTGTAAAACGACGGCCAGTGAGCG
- binding result [2]: binds
- binding result [3]: binds

B3: continuous BLI substrate (dsDNA)
DNA 1: GGTAACGCCAGGGTTTTCCCAGTCACGACGTTGTAAAACGACGGCCAGTGAGCG
DNA 2: CGCTCACTGGCCGTCGTTTTACAACGTCGTGACTGGGAAAACCCTGGCGTTACC
- Kd (DNA polymerase I (Pol I) [4]): 285 ± 5 nM
